{
  "source": "patent US8470574B2",
  "about": "“L-succinylaminoacylase and process for producing L-amino acid using it” (Toyo Boseki Kabushiki Kaisha, priority 2008, dated 2013)",
  "key": {"[1]": {"experiment": "Effect of metal ion on N-succinylamino acid racemase activity", "type": "biochemical", "details": "final concentration of 0.1 mM to 1 M"}, "[2]": {"experiment": "Conversion of N-succinyl-DL-tert-leucine to L-tert-leucine, HPLC (Example 5)", "type": "biochemical", "details": "1 wt % N-succinyl-DL-tert-leucine, pH 7 to 8, 1 mM CoCl2, 57° C., 90 hours, theoretically highest yield 50%", "procedure": "An L-succinylaminoacylase solution (1 mL; 2.3 mg/mL) was added to a 1 wt % solution of N-succinyl-DL-tert-leucine (pH 7 to 8; 10 mL; containing 1 mM of CoCl2) and made to react at 57° C. for 90 hours with stirring to give L-tert-leucine. The sample was collected after finishing the reaction and subjected to an HPLC measurement under the condition same as the Example 4 to confirm the peaks of succinyl-form compound and free-form compound whereby the synthesis of L-tert-leucine from N-succinyl-DL-tert-leucine was confirmed. As a result, the yield was 45% or more and the value near 50% which is the theoretically highest yield was achieved."}, "[3]": {"experiment": "Synthesis of L-serine from N-succinyl-L-serine, TLC detection (Example 3)", "type": "biochemical", "details": "TLC ninhydrin, as Example 2", "procedure": "(§1) The reaction reagent containing the N-succinyl-L-amino acid as such was prepared by the same method as in the preparation of a reaction reagent containing N-succinyl-L-tert-leucine mentioned in (1).\n(§2) The L-succinylaminoacylase (2.3 mg/mL, 0.5 mL) prepared in Example 1 was added to the reaction reagent (9.5 mL) containing the above N-succinyl-L-tert-leucine and, after the above was gently stirred, the reaction was conducted at 57° C. for 6 hours. As a control test, the same reaction was conducted by adding 50 mM K-phosphate buffer (pH 7.5) to the reagent mixture in place of the L-succinylaminoacylase solution. […]\n(§3) N-Succinyl-L-valine, N-succinyl-L-phenylalanine, N-succinyl-L-tryptophan, N-succinyl-L-asparagine, N-succinyl-L-aspartic acid, N-succinyl-L-serine, N-succinyl-L-glutamic acid, N-succinyl-L-tert-leucine, N-succinyl-L-cyclohexylglycine or N-succinyl-L-4-bromophenylalanine is used as an N-succinyl-L-amino acid and a reaction reagent was prepared according to the method for the case of N-succinyl-L-tert-leucine. L-succinylaminoacylase of Example 1 was made to react using the resulting reaction reagent to synthesize an L-amino acid and the L-amino acid was directly detected by the same manner as in Example 2."}, "[4]": {"experiment": "Conversion of N-succinyl-L-tert-leucine to L-tert-leucine, HPLC (Example 4)", "type": "biochemical", "details": "1 wt % N-succinyl-L-tert-leucine, pH 7 to 8, 1 mM CoCl2, 57° C., up to 90 hours", "procedure": "An L-succinylaminoacylase solution (1 mL; 2.3 mg/mL) was added to a 1 wt % solution of N-succinyl-L-tert-leucine (pH 7 to 8; 10 mL; containing 1 mM of CoCl2) and made to react at 57° C. for 90 hours with stirring to give L-tert-leucine. The sample was collected after 16 hours, 42 hours, 65 hours and 90 hours from the start of the reaction and subjected to an HPLC measurement under the following condition to confirm the peaks of succinyl-form compound and free-form compound whereby the synthesis of L-tert-leucine from N-succinyl-L-tert-leucine was confirmed.\nColumn: Inertsil ODS-2 (particle size: 5 μm; 4.6 mm inner diameter×250 mm length) manufactured by GL Science\nEluant: aqueous solution of phosphate (pH 2.3)/acetonitrile for HPLC=80:20\nColumn temperature: 40° C."}, "[5]": {"experiment": "Synthesis of L-valine from N-succinyl-L-valine, TLC detection (Example 3)", "type": "biochemical", "details": "TLC ninhydrin, as Example 2", "procedure": "as §1, §2, §3"}, "[6]": {"experiment": "Synthesis of L-tryptophan from N-succinyl-L-tryptophan, TLC detection (Example 3)", "type": "biochemical", "details": "TLC ninhydrin, as Example 2", "procedure": "as §1, §2, §3"}, "Optimum pH of the enzyme": {"experiment": "Optimum pH of the enzyme", "type": "biochemical", "details": "reaction at 60° C. for 30 minutes"}, "[7]": {"experiment": "Synthesis of L-glutamic acid from N-succinyl-L-glutamic acid, TLC detection (Example 3)", "type": "biochemical", "details": "TLC ninhydrin, as Example 2", "procedure": "as §1, §2, §3"}, "[8]": {"experiment": "Effect of metal ion on L-succinylaminoacylase activity", "type": "biochemical", "details": "metal ion Co2+ versus Zn2+"}, "[9]": {"experiment": "Synthesis of L-tert-leucine from N-succinyl-L-tert-leucine, TLC with ninhydrin detection (Examples 2, 3)", "type": "biochemical", "details": "57° C., 6 hours, CoCl2, HEPES pH 7.9", "procedure": "The above-mentioned 1 M HEPES (2.0 mL), 10 mM CoCl2 solution (0.1 mL) and 150 mM N-succinyl-L-tert-leucine (1.0 mL) were mixed with water (6.4 mL) to give a reaction reagent.\nas §2, §3"}, "[10]": {"experiment": "Temperature stability of the enzyme", "type": "physicochemical", "details": "heating treatment for 30 minutes"}, "[11]": {"experiment": "Synthesis of L-4-bromophenylalanine from N-succinyl-L-4-bromophenylalanine, TLC detection (Example 3)", "type": "biochemical", "details": "TLC ninhydrin, as Example 2", "procedure": "as §1, §2, §3"}, "[12]": {"experiment": "Conversion of N-succinyl-DL-tert-leucine to L-tert-leucine with N-succinylamino acid racemase, HPLC (Example 6)", "type": "biochemical", "details": "used together with N-succinylamino acid racemase, 1 wt % N-succinyl-DL-tert-leucine, 1 mM CoCl2, 57° C., up to 90 hours", "procedure": "An L-succinylaminoacylase solution (1 mL; 2.3 mg/mL) prepared in Example 1 and the above N-succinylamino acid racemase (0.1 mL; 10.5 mg/mL) were added to a 1 wt % solution of N-succinyl-DL-tert-leucine (pH 7 to 8; 10 mL; containing 1 mM of CoCl2) and made to react at 57° C. for 90 hours with stirring to synthesize L-tert-leucine. The sample was collected after 24 hours and 90 hours from the start of the reaction and subjected to an HPLC measurement under the condition same as Example 4 to confirm the peaks of succinyl-form compound and free-form compound whereby the synthesis of L-tert-leucine from N-succinyl-DL-tert-leucine was confirmed."}, "[13]": {"experiment": "Synthesis of L-cyclohexylglycine from N-succinyl-L-cyclohexylglycine, TLC detection (Example 3)", "type": "biochemical", "details": "TLC ninhydrin, as Example 2", "procedure": "as §1, §2, §3"}, "[14]": {"experiment": "Synthesis of L-phenylalanine from N-succinyl-L-phenylalanine, TLC detection (Example 3)", "type": "biochemical", "details": "TLC ninhydrin, as Example 2", "procedure": "as §1, §2, §3"}, "[15]": {"experiment": "Synthesis of L-asparagine from N-succinyl-L-asparagine, TLC detection (Example 3)", "type": "biochemical", "details": "TLC ninhydrin, as Example 2", "procedure": "as §1, §2, §3"}, "[16]": {"experiment": "Activity to N-succinylamino acid compared with N-acetylamino acid", "type": "biochemical"}, "[17]": {"experiment": "Synthesis of L-aspartic acid from N-succinyl-L-aspartic acid, TLC detection (Example 3)", "type": "biochemical", "details": "TLC ninhydrin, as Example 2", "procedure": "as §1, §2, §3"}, "[18]": {"experiment": "Ability of commercially available L-aminoacylase to synthesize L-tert-leucine, TLC (Comparative Example)", "type": "biochemical", "details": "2,600 U/mL enzyme solution, 25° C., 12 hours; TLC ninhydrin", "procedure": "Acylase AMANO (Sigma, code No. 01818-5G) and porcine kidney Acylase I (Sigma, code No. A3010-100MG) were dissolved in 50 mM K-phosphate buffer (pH 7.5) so as to make each of them 2,600 U/mL to give an L-aminoacylase solution.\nThe above-mentioned 1 M HEPES (2.0 mL), 10 mM CoCl2 solution (0.1 mL) and 150 mM N-acetyl-L-tert-leucine (1.0 mL) were mixed with water (6.4 mL) to give a reaction reagent.\nThe above commercially available L-aminoacylase (Comparative Example 2) (0.5 mL) was added to the reaction reagent (9.5 mL) containing the above N-acetyl-L-tert-leucine and, after the above was gently stirred, the reaction was conducted at 25° C. for 12 hours. As a control test, the same reaction was conducted by adding 50 mM K-phosphate buffer (pH 7.5) to the reagent mixture in place of the L-aminoacylase solution. After the enzymatic reaction, the L-amino acid was directly detected by TLC and ninhydrin reaction by the same manner as in Example 2."}},
  "note": "Entries after “also recorded” stand apart in the source; their conditions may differ.",
  "data": [
    {"molecule": "N-succinylamino acid racemase: N-succinylamino acid racemase (gene SEQ ID No: 3) derived from Geobacillus stearothermophilus NCA 1503 strain, per JP-A No. 2008-61642 (protein, listed as Geobacillus stearothermophilus, CDS (1)..(1128)) MAINIEYVILRHLQMELKAPFTTSFGTFQRKELILVEVVDRDGVSGWGESVAFSAPWYSEETVKTNWHMLEDFLVPLALAEPIHHPEELSKRFSAIRQNNMAKAALEGAVWDLYAKRLGVPLSQALGGAKKDIEVGVSIGIQPTVADLLQVIERYVAQGYRRIKVKIKPSWDVDVIREVRRVFPDVPLMADANSAYTLVDADRLKALDEFGLLMIEQPLAADDLVDHARLQPLLQTPICLDESIRSYDDARKALDLGSCRIINIKIGRVGGLGEAKRIHDLCAERGAPVWCGGMLEAGVGRAHNIAITTLENFTLPGDTAASSHYWERDIITPEVEVHGGLIRVPDAPGIGYDVDRRQVERYTQFAKVFHRTATA", "values": [
      {"measurement": "relative activity with Co2+ as compared with Mn2+", "setting": "[1]", "result": "twice or more higher"}
    ]},
    {"molecule": "L-succinylaminoacylase: L-succinylaminoacylase of NCA 1503 strain of Geobacillus stearothermophilus; amino acid sequence SEQ ID No: 2, expressed in Escherichia coli JM 109 (pLSA1) (protein, listed as Geobacillus stearothermophilus) MKEIVEQMKAELWEVFDHLHRHPEISWEEWQTTEFLRRELEREGYRVRTFADCPGVVAEIGAGPFTVGVRSDMDALWQEVNGVWQPNHACGHDAHMTIVLGVAKLLRRIGYEPPGTLRFLFQPAEEKGTGALKLIEKGAVDGVSFLYGVHLRPIQEVKGGYAAPAIIHGAAQCIEGRIRGVAAHAARPHLGVNVIEVGSAIVQELGKIHIDPQVPASIKMTKFHAGEKDANTIPGYAEFALDLRAQTNEAMERLVEGLRHVINGVAAIYGAEIELVERTRIVAAHPDPDAVRLMEEAIIAALGTEKCVPPVVTSGGEDFHFYSFQKPELKTTMLGLGCDLRPGLHHPNMTFRRDDLLSGVEILARTVINTFALQGENERVSVAANH", "values": [
      {"measurement": "yield of L-tert-leucine", "setting": "[2]", "result": "≥ 45", "unit": "%"},
      {"measurement": "ability to synthesize L-serine from N-succinyl-L-serine", "setting": "[3]", "result": "able to synthesize the corresponding L-amino acid"},
      {"measurement": "yield (conversion rate into L-tert-leucine)", "setting": "[4]", "result": "≥ 90", "unit": "%"},
      {"measurement": "ability to synthesize L-valine from N-succinyl-L-valine", "setting": "[5]", "result": "able to synthesize the corresponding L-amino acid"},
      {"measurement": "ability to synthesize L-tryptophan from N-succinyl-L-tryptophan", "setting": "[6]", "result": "able to synthesize the corresponding L-amino acid"},
      {"measurement": "Optimum pH", "setting": "Optimum pH of the enzyme", "result": 7},
      {"measurement": "ability to synthesize L-glutamic acid from N-succinyl-L-glutamic acid", "setting": "[7]", "result": "able to synthesize the corresponding L-amino acid"},
      {"measurement": "activity increase with Co2+ as compared with Zn2+", "setting": "[8]", "result": "twice or more"},
      {"measurement": "ability to produce L-tert-leucine from N-succinyl-L-tert-leucine", "setting": "[9]", "result": "able to produce the L-tert-leucine; also recorded: able to synthesize the corresponding L-amino acid; also recorded: reacts"},
      {"measurement": "Temperature stability: temperature at which inactivated", "setting": "[10]", "result": "≥ 75", "unit": "°C"},
      {"measurement": "Temperature stability: temperature at which stable", "setting": "[10]", "result": 70, "unit": "°C"},
      {"measurement": "ability to synthesize L-4-bromophenylalanine from N-succinyl-L-4-bromophenylalanine", "setting": "[11]", "result": "able to synthesize the corresponding L-amino acid; also recorded: reacts"},
      {"measurement": "yield (conversion rate into L-tert-leucine)", "setting": "[12]", "result": "about 85%"},
      {"measurement": "ability to synthesize L-cyclohexylglycine from N-succinyl-L-cyclohexylglycine", "setting": "[13]", "result": "able to synthesize the corresponding L-amino acid; also recorded: reacts"},
      {"measurement": "ability to synthesize L-phenylalanine from N-succinyl-L-phenylalanine", "setting": "[14]", "result": "able to synthesize the corresponding L-amino acid"},
      {"measurement": "ability to synthesize L-asparagine from N-succinyl-L-asparagine", "setting": "[15]", "result": "able to synthesize the corresponding L-amino acid"},
      {"measurement": "activity to N-succinylamino acid relative to N-acetylamino acid", "setting": "[16]", "result": "at least 100 fold"},
      {"measurement": "ability to synthesize L-aspartic acid from N-succinyl-L-aspartic acid", "setting": "[17]", "result": "able to synthesize the corresponding L-amino acid"}
    ]},
    {"molecule": "porcine kidney Acylase I: commercially available L-aminoacylase (Sigma, code No. A3010-100MG) (protein, UniProt P37111 2-407, looked up) Aminoacylase-1: ASKGREGEHPSVTLFRQYLRIRTVQPEPDYGAAVAFLEERARQLGLGCQKVEVVPGHVVTVLTWPGTNPTLSSILLNSHTDVVPVFKEHWSHDPFEGFKDADGYIYGRGAQDMKCVSIQYLEAVRRLKVEGHHFPRTIHMTFVPDEEVGGHQGMELFVKRPEFQALRAGFALDEGLASPTDAFTVFYSERSPWWLRVTSTGKPGHGSRFIEDTAAEKLHKVINSILAFREKEKQRLQSNQLKPGAVTSVNLTMLEGGVAYNVVPATMSACFDFRVAPDVDLKAFEEQLQSWCQAAGEGVTFEFVQKWMETQVTSTDDSDPWWAAFSGVFKDMKLALELEICPASTDARYIRAAGVPALGFSPMNHTPVLLHDHDERLHEAVFLRGVDIYTQLLSALASVPALPSES", "values": [
      {"measurement": "ability to synthesize L-tert-leucine from N-acetyl-L-tert-leucine", "setting": "[18]", "result": "unable to synthesize L-tert-leucine"}
    ]}
  ]
}
